Experimental data: the nanobody polyreactivity screen of Harvey et al. (2022)

test: yeast display, Sf9 membrane polyspecificity reagent, FACS + sequencing; frameworks hold sequencing errors
In short: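 A synthetic nanobody library was expressed on Saccharomyces cerevisiae BJ5465 by galactose induction for 36–48 hours. The library was stained for 1 hour at 4 °C with 10% biotinylated, detergent-solubilized Sf9 membrane reagent and enriched with streptavidin microbeads before FACS. Low and high (top ~1%) gates were set on anti-HA fluorescence for expression and streptavidin fluorescence for reagent binding, and each polyreactivity label reflects the gate of origin.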

Sequence	polyreactivity (PSR sort gate)
QVQLVESGGGLVQAGGSLRLSCDASGRIFQPNVMGWYRQAPGKERELVAAIRSGSSTYYADSVKGRFTISRDNAKNTFYLQMNSLKPEDTAVYYCATRYRKQYKPYEYWGQGTQVTVSS	high polyreactivity
QVQLVESGGGLVQAGGSLRLSCDASGRIFRENAMGWYRQAPGKERELVAAINRSGSRTYYADSVKGRFTISRDNAKNTVYLQMNSLKPEDTAVYYCATASSIRYDYWGQGTQVTVSS	high polyreactivity
QVQLVESGGGLVQAGGSLRLSCDASGRIFSPNTMGWYRQAPGKERELVAAISRGGSTYADSVKGRFTISRDNAKITVYLQMNSLKPEDTAVYYCNARYGRYYGAYEYWGQGTQVTVSS	high polyreactivity
QVQLVESGGGLVQAGGSLRLSCDASGRILKYYDMGWYRQAPGKERELVAAISVSGTSTYYADSVKGRFTISRDNAKNTVYLQMNSLKPEDTAVYYCATATGRYSFDYWGQGTQVTVSS	low polyreactivity
QVQLVESGGGLVQAGGSLRLSCDASGRIYGYNAIAWYRQAPGKERELVAAITNGGSTNYADSVKGRFTISRDNAKNTVFLQMNSLKPDETAVYYCAVKWYAPGHDYWGQGTQVTVSS	low polyreactivity
QVQLVESGGGLVQAGGSLRLSCDASGRIYLYAMGWYRQAPGKERELVAAITTRAGRTYYADSVKGRFTISRDNAKNTVYFQMNSLKPEDNAVSYCAADGTRYPAYGYWGQGTQVTVSS	low polyreactivity
QVQLVESGGGLVQAGGSLRLSCDASGRSSVSMLMVWYRQAPGKERELVARITGSGGSTYYADSVKGRFTISRDNAKNTVYLQMNSLKPEDTAVYYCAARYLWRGRYNYWGQGTQVTVSS	high polyreactivity
QVQLVESGGGLVQAGGSLRLSCDASGRTFDVYTKGWYRQAPGKERELVDANNGGGSTYYADSVKGRFTISRDNAKNTVYLQMNSLKPEDPAVFYCAAKFRAGRSSYRGSPRYDSWGQGTHVTVSS	high polyreactivity
QVQLVESGGGLVQAGGSLRLSCDASGRTFKYYAMGWYRQAPGKERELVAVITSGGSTYYADSVKGRFTISRDNAKNTVYLQMNSLKPEDTAVYYCAKSSHAREYYYWGQGTQVTVSS	low polyreactivity
QVQLVESGGGLVQAGGSLRLSCDASGRTFLTNTMGWYRQAPGKERELVAAISSGGSTKYADSVKGRFTISRDNAKNTVYLQMNSLKPEDNAVYYCAATGWRYGYKYYYWGQGTQVTVSS	high polyreactivity
QVQLVESGGGLVQAGGSLRLSCDASGRTFPEYGMGWYRQAPGKEREFVAAISTRGGSTYYANSVKGRFTISRDNAKNTVYLQMNSLKPEDTAVYYCAAKYPGGETYPFDYWGQGTQVTVSS	low polyreactivity
QVQLVESGGGLVQAGGSLRLSCDASGRTFRYYAMGWSRQAPGKERELVAAISASGGSTFYADSVKGRFTISRDNAKNSVYLQMKSLKPEDTAVYYCAAYHYCVFPYKQYDYWGQGTQVTVSS	high polyreactivity
QVQLVESGGGLVQAGGSLRLSCDASGSIFFSYAMGWYRQAPGTEREFVAAINSDDASTYADSVKGRFTISRDNAKNTVYLQMNSLKPEDTAVYYCADSFLWSWYDYWGQGTQVTVSS	low polyreactivity
QVQLVESGGGLVQAGGSLRLSCDASGSIFGSYVMGWSRQAPGKERELVAAISSSGASTYYADSVKGRFTISRDNAKNTVYLQMNSLKPEDTAVYYCATTRRPYVRGYPHYYWGQGTQVTVSS	high polyreactivity
QVQLVESGGGLVQAGGSLRLSCDASGSIFIPYAMGWYRQAPGKERELVAAISGSGTSTNYADSVKGRFTISRDNAKNTVYLQMNSLKPEDTAVYYCAARLPYGYLRSKFYYWGQGTQVTVSS	high polyreactivity
QVQLVESGGGLVQAGGSLRLSCDASGSIFNRNVMGWYRQAHGKERELVAVITGSGDSTFYADSVKGRFTISRDNAKNTVYLQRNSLIPDDTAVYYCNARLVSGGYYYWGLGTQVTVSS	low polyreactivity
QVQLVESGGGLVQAGGSLRLSCDASGSIFPLYAMGWYRQAPGKERELVAAITSGTSTNYADSVKGRFTISRDNAKNTVYLQMNSLKPEDTAVYYCAADVYTRFWRVYRFDYWGQGTQVTVSS	low polyreactivity
QVQLVESGGGLVQAGGSLRLSCDASGSIFRPNAMGWYRQPPGKERELVAAITWIAGGTYYADSVKGRFTISRDNAKNTVYLQMNSLKPEDTAVYYCAARWYFQTGVGRYYHYDYWGQGTQVTVSS	high polyreactivity
QVQLVESGGGLVQAGGSLRLSCDASGSIFSQYAMGWDRQAPGKEWELVAAITWSGGSTYYADSVMGRFTFSRDNAKNTVYLQMNSLKPEDTEVYYCAATGYYYTRSSTWYRYYYWGQGTQVTVSS	high polyreactivity
QVQLVESGGGLVQAGGSLRLSCDASGSIFSYYAMGWYRQAPGKERELVAAITYRGGSTFYADSVKGRFTLSRDNAKNTVYFQMNRLKPEDTAVYYCATRYYVDQRYQYKYDYWGQGTQVTVSS	high polyreactivity
QVQLVESGGGLVQAGGSLRLSCDASGSIFVLNAMGWYRQAPGKERELVAAISYSGGSTYYADSVKGRFTISRDNAKNTVYLQMNSLKPEDTAVYYCAADLVSYYGYSSEYEYWGQGTQVTVSS	high polyreactivity
QVQLVESGGGLVQAGGSLRLSCDASGSTFIYYTMGWYRQAPGKERELVAAINGGGGSTYYADSVKGRFTISRDNAKNTVYLQMNSLKPEDTAVYYCATDPWHRAWGYGWGYNYWGQGTQVTVSS	low polyreactivity

Sequence	polyreactivity (PSR sort gate)
QVQLVESGGGLVQAGGSLRLSCDASGSTFPKYAMGWYRQAPGKEWELVASISARGGGTHYADSVKGRFTISRDNAKNTVYLQMNSLKPEDTAVYYCNDVAHRQAQGAWGPGTQVTVSS	low polyreactivity
QVQLVESGGGLVQAGGSLRLSCDDSGGIFQENAMGWYTQAPGKERELVATSTRSTGSTYYADSVKGRFTISRDTAKNTVYLQMNSLKPEDTAVYYCAARRLSQYYRYAYKYDYWGQVTQVTVSS	high polyreactivity
QVQLVESGGGLVQAGGSLRLSCDDSGSIFWWYTMGWYRQAPGKERELVAAITWNADGTYYADSVKGRFTISRDNAKNTVYLPINSLKPEDTAVYYCAADQYYLDWGGGYDYWGQGTQLTVSS	low polyreactivity
QVQLVESGGGLVQAGGSLRLSCDDSGTFFMGWNIPAPRKERELVAGISISDGSTYYADSVKGRFTISRDNAKNSVYLQMNSLKPEDTAVYYCAADSHYLYDYWGQGTQVTVSS	low polyreactivity
QVQLVESGGGLVQAGGSLRLSCGASGFFFEPNSMGWYRQATGKERELVAAISSGGSTYADSVKGRFTISRDNAKNPVYLQMNSLKPEDTAVYYCAARPNQSYYGLYYYWGQGTQVTVSS	low polyreactivity
QVQLVESGGGLVQAGGSLRLSCGASGFIFGSYAMGWYRQAPGKERELVAAISWSGGGTYYADSVKGRFTISRDNAKNTVYLQMNRLNPEDTAVYYCGALTRYKTASGYDYWGQGTQVTVSS	high polyreactivity
QVQLVESGGGLVQAGGSLRLSCGASGGIFYLYAMGWSRQAPGKERELVAAITWSADSTYYADSVKGRFTISRDNAKNTVYLQMNSLKPEDTAVYYCNADVAWQYGKGWSWDIDDYWRQGTQVTVSS	low polyreactivity
QVQLVESGGGLVQAGGSLRLSCGASGRIISKYAMGWYRQAPGKERELVAAITSRGGNTYYAVSVKGRFTISRDNAKNTVYFQMYSLNPEDTAVYSCNTSPQSRYVFGRVDSWGQGTQVTVSS	high polyreactivity
QVQLVESGGGLVQAGGSLRLSCGASGRTFFWYDMGWYRQAPGKERELVAAISSSTRTKYADSVKGRFTISRDNAKNTVYLQMNSLKPEDSAVSYCAATSDYYHYWYYSSVRRFDYWGQGTQVTVSS	high polyreactivity
QVQLVESGGGLVQAGGSLRLSCGASGRTFGRYAMGWYRQAPGKERELVDAITWSGGSTYYADSVKGRFTISRDNAKNTVYLQMNSLKPEDTAVYYCAASGYPIYHDDYWGQGTQVTVSS	low polyreactivity
QVQLVESGGGLVQAGGSLRLSCGASGRTFISNAMGWYRQAPGKERELVATINSGGSTNYADSVKGRFTISRDNAKNTVYLQMNSLKPEDTAVYYCARRVRYKHYDYWGQGTQVTVSS	high polyreactivity
QVQLVESGGGLVQAGGSLRLSCGASGSIFWVYAMGWYRQAPGKERELVAAISNSGSTNYADSVKGRFTISRDNAKNTVYLQMNSLKPADTAVYYCAKDSLVDHVGGYDYWGQGTQVTVSS	low polyreactivity
QVQLVESGGGLVQAGGSLRLSCGGSGSTFYVNAMGWYRQAPGKEREFVAAITWNSGSTYYADSVKGRFTISRDNAKNTVYLQMHSLKPEDTAVYYCAAVLSVRVYGYDYWGQGTQVTVSS	low polyreactivity
QVQLVESGGGLVQAGGSLRLSCPASGFIYWSYAMGWYRQAPGKERELVADIDSDASTDYADSVKGRFTITRDNAKNTVYLQMNSLKPEDTAVYYCAALASIQQYPGNFYYWGQGTQVTVSS	high polyreactivity
QVQLVESGGGLVQAGGSLRLSCPASGFNFSHNAMGWYRQAPGKERELVAAITWSGAITSYADSVKGRFTISRDNAKNTVYLQMNILKPEDTAVYYCAKLWSWDLSRYGPRVDYWGQGTQVTVSS	low polyreactivity
QVQLVESGGGLVQAGGSLRLSCPASGFTFRRYAMGWSRQQPGKESELDAAITRNGGSTYYADSVKGRFTISRDNAKNTVYLLINRLKPEDTAVYYCNAVLYTPVYDCFDSWGQGTQVTVSS	high polyreactivity
QVQLVESGGGLVQAGGSLRLSCPASGIIFYGYTMGWYRQEPGKERELVAAISRSGGRTYYADSVKGRFTISRDNAKYTVYLQMNSLKPEDTAVYYCAATGSYSDRVEDEFWGQGTQVTVST	high polyreactivity
QVQLVESGGGLVQAGGSLRLSCPASGITFHGYAMGWYTQEPGKERELVAAITRGGSTYYADSVKGRFTISRDNAKNTVYLQMNSLKPEDTAVYYCAARRVGYSTNYYHYNYWGQGTQVSVSS	high polyreactivity
QVQLVESGGGLVQAGGSLRLSCPASGLIFRRNVMGRYRQAPGKERELVAAISRGGSTYNADSVKGRFTISRDNAKNTVFLQMNSLNPEDTAVYYCAAAYTRYVVRGDFWGQGTQVTVSS	high polyreactivity
QVQLVESGGGLVQAGGSLRLSCPASGRIFKSYAMGWYRHAPGKERELVAAINWSGGSKYYADSVKGRFTISRDNAKNTVYLQMNSLKPEDTAVYYCAAYFYGRWPYGTGYYYWGQGTQVTVSS	high polyreactivity
QVQLVESGGGLVQAGGSLRLSCPASGRIFYIYTMGWYRQAPGKERELVASITYNGGSTYYADSVKGRFTISRDNAKNTVYLQMNSLKPEDTAVYYCNANSRSPTYRYRSWPYNYWGQGTQVTVSS	high polyreactivity
